According to patent US20220233710A1 (NANTONG YICHEN BIOPHARMA, published 2022):

Key:
Recombinant human IL-6 = target: T1, Recombinant human IL-6 (human, UniProt P05231 30-212); assay: ELISA, human IL-6 coated on plate, anti-human Fc-HRP
T1 construct: Bought protein
Procedure: Recombinant human IL-6 (SinoBiological) (100 ng/well) (PBS buffer, pH7.4) was coated in a 96-well plate, and incubated overnight at 4° C. After blocked with PBST containing 2% skimmed milk powder (0.5% Tween-20 in PBS) at room temperature for 1 hour, followed by being washed for 3 times with PBST, the bispecific molecules (0.04 nM-30 nM) in gradient dilutions were added and incubated at 37° C. for 1 h. After being washed for 3 times with PBST, anti-human Fc-HRP (KPL, 1:2500) secondary antibody diluted by 2% milk/PBST was added and incubated at room temperature for 1 h, followed by being washed for 5 times with PBST. TMB (BioLegend) was used for color development, and readings was performed in Thermal VARIOSKAN FLASH plate reader at 650 nm. Data was analyzed with a log[agonist] vs response (3 parameters) model in “non-linear regression” by Graphpad Prizm software.

recombinant mouse IL-1β = target: T2, recombinant mouse IL-1β (mouse, UniProt P10749 118-269); assay: ELISA, IL-1β coated on plate, anti-human Fc-HRP
T2 construct: Bought protein; also called murine IL-1β
Procedure: (§1) Recombinant human IL-1β (Thermo Fisher Scientific), recombinant mouse IL-1β (Sino Bio), recombinant mouse IL-1R (Sino Bio), or recombinant human IL-1R (100 ng/well) (DPBS buffer, pH7.4) was coated in a 96-well plate, and incubated overnight at 4° C. After blocked by PBST (0.5% Tween-20 in PBS) containing 2% skimmed milk powder for 1 hour at room temperature, and being washed with PBST for 3 times, the gradient diluted bispecific molecules (0.006 nM-100 nM) were added and incubated at 37° C. for 1 h. After being washed with PBST for 3 times, anti-human Fc-HRP (KPL; 1:2500) secondary antibody diluted by 2% milk/PBST was added and incubated at room temperature for 1 h, and then washed by PBST for 5 times. QuantaBlu fluorescent peroxide enzyme substrate (Life technologies, Cat. 15169) was used for color development, and reading was performed at 325 nm and 420 nm, or TMB color reagent (Bio Legend) was used for color development, and the reading was performed at 650 nm. Data was analyzed by nonlinear regression using specific binding model in Prizm Graphpad software.

recombinant human IL-1β = target: T3, recombinant human IL-1β (human, UniProt P01584 117-269); assay: ELISA, IL-1β coated on plate, anti-human Fc-HRP
T3 construct: Bought protein
Procedure: as §1

T1 sequence (P05231 30-212 limits assumed): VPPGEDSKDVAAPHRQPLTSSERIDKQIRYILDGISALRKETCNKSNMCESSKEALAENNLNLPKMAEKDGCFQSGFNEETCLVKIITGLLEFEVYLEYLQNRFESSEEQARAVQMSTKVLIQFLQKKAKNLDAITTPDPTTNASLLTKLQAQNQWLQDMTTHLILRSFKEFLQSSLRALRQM

| Binder | binding result (Recombinant human IL-6) | binding result (recombinant mouse IL-1β) | binding result (recombinant human IL-1β) |
| --- | --- | --- | --- |
| aIL-6 antibody (antibody, human IgG1, kappa, N297A, V domains shown) VH: EVQLVESGGGLVQPGGSLRLSCAASGFTFSPFAMSWVRQAPGKGLEWVAKISPGGSWTYYSDTVTGRFTISRDNAKNSLYLQMNSLRAEDTAVYYCARQLWGYYALDIWGQGTTVTVSS VL: EIVLTQSPATLSLSPGERATLSCSASISVSYMYWYQQKPGQAPRLLIYDMSNLASGIPARFSGSGSGTDFTLTISSLEPEDFAVYYCMQWSGYPYTFGGGTKVEIKR | binds | – | – |
| BSI-13 (bispecific antibody, human IgG1, kappa, N297A, aIL-6 antibody fused with IL-1RA by a linker peptide) heavy: not shown light: EIVLTQSPATLSLSPGERATLSCSASISVSYMYWYQQKPGQAPRLLIYDMSNLASGIPARFSGSGSGTDFTLTISSLEPEDFAVYYCMQWSGYPYTFGGGTKVEIKRTVAAPSVFIFPPSDEQLKSGTASVVCLLNNFYPREAKVQWKVDNALQSGNSQESVTEQDSKDSTYSLSSTLTLSKADYEKHKVYACEVTHQGLSSPVTKSFNRGEC | binds | – | – |
| BSI-16 (bispecific antibody, human IgG1, kappa, aIL-6 antibody fused with IL-1RA by a linker peptide) heavy: not shown light: EIVLTQSPATLSLSPGERATLSCSASISVSYMYWYQQKPGQAPRLLIYDMSNLASGIPARFSGSGSGTDFTLTISSLEPEDFAVYYCMQWSGYPYTFGGGTKVEIKRTVAAPSVFIFPPSDEQLKSGTASVVCLLNNFYPREAKVQWKVDNALQSGNSQESVTEQDSKDSTYSLSSTLTLSKADYEKHKVYACEVTHQGLSSPVTKSFNRGEC | binds | – | – |
| aIL-1β-2 antibody (antibody, V domains shown) VH: QVQLQQWGAGLLKPSETLSLTCAVYGGSFSDYYWSWIRQPPGKGLEWIGEIDHSGSTNYNPSLKSRVTISVDTSKNQFSLKLSSVTAADTAVYYCARASPSSGWTLDYWGQGTLVTVSS VL: QSVLTQPPSVSVSPGQTASITCSGDKLGDKFAFWYQQKPGQSPVLVIYLDNKRPSGIPERFSGSNSGNTATLTISGTQALDEADYYCYAWADTYEVFGGGTKVDIKR | – | binds | binds |
